Assay results published in patent publication US20260347484 (published 2026).

Molecular target: human IGF-1R (human, UniProt P08069)
Assay: BLI

Kd: 1.85 nM
B1: PHP1003-3 (designed binder)
chain 1: QVQLQQSGPGLVKPSQTLSLTCTVSGWSISGGWLWNWIRQPPGKGLQWIGWISWDGTNNWKPSLKDRVTISVDTSKNQFSLKLSSVTAADTAVWWCARWGRVFFDWWGQGTLVTVSS
chain 2: DIVMTQSPLSLPVTPGQPASISCRSSQSIVHSNGNTWLQWWLQKPGQSPQLLIWKVSNRLWGVPDRFSGSGSGTDFTLKISRVQAQDVGVWWCFQGSHVPWTFGQGTKVQIK
